{"source": "patent US20240228639A1", "about": "(ALLOGENE THERAPEUTICS, published 2024)", "binders": {"B1": {"name": "anti-idiotype antibody Clone 60 (IDA2002-1.60) (antibody, mouse IgG1, kappa, V domains shown)", "VH": "EVQLQQSGPELVKTGTSVKISCKASGYSITGYYIHWVKQSHGRSLDWIGSISFYNGATTYNQKFKGKVTFTVDTSSSTAYMQFNSLTSEDSAVYYCGRRGDDYDVFAYWGQGTLVTVSA", "VL": "DIVLTQSPASLAVSLGQRATISCRASESVDSYGYSFLHWYQQKPGQPPTLLIYRASNLESGIPARFSGSGSRTDFTLTINSVEADDVATYYCQQSNEDPWTFGGGTKLEIKR", "notes": "Mouse IgG1 kappa; also called clone 1.60; Clone 60-PE"}}, "key": {"4F11 scFv 10xHis [1]": {"target": "T1, 4F11 scFv 10xHis", "T1 construct": "also called 4F11-derived scFv with a His tag; anti-CD70 scFv 4F11", "T1 sequence (scFv, as listed by the source)": "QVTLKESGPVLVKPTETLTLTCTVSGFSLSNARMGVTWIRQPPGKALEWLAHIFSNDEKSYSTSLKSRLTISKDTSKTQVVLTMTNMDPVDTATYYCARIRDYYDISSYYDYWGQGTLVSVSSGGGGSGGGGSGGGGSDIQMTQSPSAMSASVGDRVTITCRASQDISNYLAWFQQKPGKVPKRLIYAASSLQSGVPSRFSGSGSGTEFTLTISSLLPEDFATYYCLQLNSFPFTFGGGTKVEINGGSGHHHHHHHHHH", "experiment": "SPR (Biacore), clone 60 captured on anti-mouse Fc, 4F11_scFv_0166-P as analyte, 37 C, 1:1 Binding model; Table 3 prints 1.43 nM for this lot, the sheet prints 1.422E-9", "method": "(§1) All SPR analysis was determined on a BIACore T200 SPR instrument (Cytiva, Marlborough, MA). For kinetic analysis and determination of simultaneous target antigen binding of CD70 anti-idiotype antibodies, mouse Fc was captured on a Biacore Series S CM4 sensor chip by amine-coupling of an anti-mouse Fc reagent (Mouse Antibody Capture Kit, Cytiva, BR100838) to the Biacore Series S CM4 sensor chip using a running buffer of 10 mM HEPES, 150 mM NaCl, 0.05% (v/v) Tween-20, pH 7.4 at 25° C. All surfaces of the sensor chip were activated with a 1:1 (v/v) mixture of 400 mM 1-Ethyl-3-(3-Dimethylaminopropyl) carbodiimide hydrochloride (EDC) and 100 mM N-hydroxysuccinimide (NHS) for 7 min at 10 μL/min. The anti-mouse Fc reagent was diluted to 30 μg/mL in 10 mM sodium acetate (pH 5.0) and injected on all four flow cells for 7 min at 10 μL/min, then all flow cells were blocked with 100 mM ethylenediamine in 200 mM Borate buffer pH 8.5 for 7 min at […].\n(§2) All interaction experiments were performed at 37° C. using the same running buffer as described above supplemented with 1 mg/mL BSA. […] The dissociation was monitored for 10 min followed by regeneration of all flow cells with 10 mM glycine at pH 1.7 for 3 min. […]"}, "Biotin-hCD70": {"target": "T2, Biotin-hCD70 (human, UniProt P32970 39-193, limits assumed, biotinylated (site not stated))", "T2 construct": "also called biotin-hCD70 complex; target antigen hCD70", "T2 sequence (looked up)": "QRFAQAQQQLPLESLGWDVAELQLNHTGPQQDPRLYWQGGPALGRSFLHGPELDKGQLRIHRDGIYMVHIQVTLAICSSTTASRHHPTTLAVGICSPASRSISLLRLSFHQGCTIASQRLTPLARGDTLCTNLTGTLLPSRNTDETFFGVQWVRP", "experiment": "SPR, Bt-hCD70 alone injected over clone 60 (hybridoma and recombinant) captured on anti-mouse Fc, then streptavidin"}, "4F11 scFv 10xHis [2]": {"target": "T1, 4F11 scFv 10xHis", "experiment": "SPR (Biacore T200), 37 C; antibody captured on anti-mouse Fc chip, 4F11 scFv 10xHis 1.2-100 nM as analyte; 1:1 Langmuir fit", "method": "as §1, §2"}}, "note": "Several values for one entry are separate records, joined by “and”; a condition that tells them apart may be missing. Equal entries are not always repeated.", "data": [{"binder": "B1", "values": [{"measurement": "Kd", "setting": "4F11 scFv 10xHis [1]", "result": 1.42, "unit": "nM"}, {"measurement": "binding result", "setting": "Biotin-hCD70", "result": "no binding (tested: 1 uM)"}, {"measurement": "Kd", "setting": "4F11 scFv 10xHis [2]", "result": "1.43 nM and 1.52 nM and 1.42 nM and 1.32 nM"}, {"measurement": "koff", "setting": "4F11 scFv 10xHis [2]", "result": "0.00343 s⁻¹ and 0.00359 s⁻¹ and 0.00312 s⁻¹ and 0.00348 s⁻¹"}, {"measurement": "kon", "setting": "4F11 scFv 10xHis [2]", "result": "2.7e+06 M⁻¹ s⁻¹ and 2.2e+06 M⁻¹ s⁻¹ (2×) and 2.4e+06 M⁻¹ s⁻¹"}, {"measurement": "t1/2", "setting": "4F11 scFv 10xHis [2]", "result": "3.32 min and 3.37 min and 3.7 min and 3.22 min"}]}]}
